In patent US20150045540A1 (published 2015):

How the values were obtained:
[1] = target: T1, Placenta Growth Factor (PlGF), human (human, UniProt P49763 21-149); test: ELISA
T1 chain: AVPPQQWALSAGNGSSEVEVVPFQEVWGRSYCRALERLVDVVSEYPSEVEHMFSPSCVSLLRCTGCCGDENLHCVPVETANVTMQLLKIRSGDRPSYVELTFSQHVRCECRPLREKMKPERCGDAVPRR

[2] = target: Hepatocyte Growth Factor (HGF), human (human, UniProt P14210 32-728); test: ELISA
Chain of Hepatocyte Growth Factor (HGF), human (P14210 32-728): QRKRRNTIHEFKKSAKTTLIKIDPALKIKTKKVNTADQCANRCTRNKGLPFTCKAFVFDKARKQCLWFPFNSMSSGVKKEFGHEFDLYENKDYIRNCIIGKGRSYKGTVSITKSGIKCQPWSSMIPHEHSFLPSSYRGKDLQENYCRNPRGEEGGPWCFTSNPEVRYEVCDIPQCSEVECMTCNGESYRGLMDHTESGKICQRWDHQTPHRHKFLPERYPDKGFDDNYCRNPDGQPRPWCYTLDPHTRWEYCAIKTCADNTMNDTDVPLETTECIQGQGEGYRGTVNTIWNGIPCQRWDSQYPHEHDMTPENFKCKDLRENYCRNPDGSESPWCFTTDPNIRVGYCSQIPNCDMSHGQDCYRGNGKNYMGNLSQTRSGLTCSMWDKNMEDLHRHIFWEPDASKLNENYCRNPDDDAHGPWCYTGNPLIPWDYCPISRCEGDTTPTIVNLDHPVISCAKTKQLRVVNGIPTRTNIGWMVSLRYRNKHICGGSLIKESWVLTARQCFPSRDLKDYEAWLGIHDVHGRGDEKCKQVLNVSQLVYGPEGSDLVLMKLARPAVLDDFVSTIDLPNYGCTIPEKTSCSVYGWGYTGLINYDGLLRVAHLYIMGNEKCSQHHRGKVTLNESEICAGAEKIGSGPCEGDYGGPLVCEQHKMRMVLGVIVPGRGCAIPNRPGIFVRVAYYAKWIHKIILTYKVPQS

Binder	EC50 [1]	EC50 [2]
HC 5/SLC 6 (antibody) chain 1: GQGTLVTVSSASTKGQPVLHQPPAMSSALGTTIRLTCTLRNDHDIGVYSVYWYQQRPGHPPRFLLRYFSQSDKSQGPQVPPRFSGSKDVARNRGYLSISELQPEDEAMYYCAMGARSRCWPRGFQSKHNSVTHVFGSGTQLTVLSQPKATPSVTLFPPSSEELQANKATLVCLMNDFYPGILTVTWKADGTPITQGVEMTTPSKQSNNKYAASSYLSLTPEQWRSRRSYSCQVMHEGSTVEKTVAPAECS chain 2: MSWAPVLLMLFVYCTGCGPQPVLHQPPAMSSALGTTIRLTCTLRNDHDIGVYSVYWYQQRPGHPPRFLLRYFSQSDKSQGPQVPPRFSGSKDVARNRGYLSISVTHVFGSGTQLTVLSQPKATQVQLVQ	0.157 nM	0.059 nM
HC 2/SLC 6 (antibody) chain 1: GQGTLVTVSSASQPVLHQPPAMSSALGTTIRLTCTLRNDHDIGVYSVYWYQQRPGHPPRFLLRYFSQSDKSQGPQVPPRFSGSKDVARNRGYLSISELQPEDEAMYYCAMGARSRCWPRGFQSKHNSVTHVFGSGTQLTVLSQPKATPSVTLFPPSSEELQANKATLVCLMNDFYPGILTVTWKADGTPITQGVEMTTPSKQSNNKYAASSYLSLTPEQWRSRRSYSCQVMHEGSTVEKTVAPAECS chain 2: MSWAPVLLMLFVYCTGCGPQPVLHQPPAMSSALGTTIRLTCTLRNDHDIGVYSVYWYQQRPGHPPRFLLRYFSQSDKSQGPQVPPRFSGSKDVARNRGYLSISVTHVFGSGTQLTVLSQPKATQVQLVQ	0.161 nM	0.056 nM
HC 10/SLC 6 (antibody) chain 1: GQGTLVTVSSASTKGPSVFPQPVLHQPPAMSSALGTTIRLTCTLRNDHDIGVYSVYWYQQRPGHPPRFLLRYFSQSDKSQGPQVPPRFSGSKDVARNRGYLSISELQPEDEAMYYCAMGARSRCWPRGFQSKHNSVTHVFGSGTQLTVLSQPKATPSVTLFPPSSEELQANKATLVCLMNDFYPGILTVTWKADGTPITQGVEMTTPSKQSNNKYAASSYLSLTPEQWRSRRSYSCQVMHEGSTVEKTVAPAECS chain 2: MSWAPVLLMLFVYCTGCGPQPVLHQPPAMSSALGTTIRLTCTLRNDHDIGVYSVYWYQQRPGHPPRFLLRYFSQSDKSQGPQVPPRFSGSKDVARNRGYLSISVTHVFGSGTQLTVLSQPKATQVQLVQ	0.089 nM	0.061 nM
HC 5/SLC 9 (antibody) chain 1: GQGTLVTVSSASTKGQPVLHQPPAMSSALGTTIRLTCTLRNDHDIGVYSVYWYQQRPGHPPRFLLRYFSQSDKSQGPQVPPRFSGSKDVARNRGYLSISELQPEDEAMYYCAMGARSRCWPRGFQSKHNSVTHVFGSGTQLTVLSQPKATPSVTLFPPSSEELQANKATLVCLMNDFYPGILTVTWKADGTPITQGVEMTTPSKQSNNKYAASSYLSLTPEQWRSRRSYSCQVMHEGSTVEKTVAPAECS chain 2: MSWAPVLLMLFVYCTGCGPQPVLHQPPAMSSALGTTIRLTCTLRNDHDIGVYSVYWYQQRPGHPPRFLLRYFSQSDKSQGPQVPPRFSGSKDVARNRGYLSISVTHVFGSGTQLTVLSQPKATPSVQVQLVQ	0.066 nM	0.052 nM
HC 6/SLC 4 (antibody) chain 1: GQGTLVTVSSASTKGPQPVLHQPPAMSSALGTTIRLTCTLRNDHDIGVYSVYWYQQRPGHPPRFLLRYFSQSDKSQGPQVPPRFSGSKDVARNRGYLSISELQPEDEAMYYCAMGARSRCWPRGFQSKHNSVTHVFGSGTQLTVLSQPKATPSVTLFPPSSEELQANKATLVCLMNDFYPGILTVTWKADGTPITQGVEMTTPSKQSNNKYAASSYLSLTPEQWRSRRSYSCQVMHEGSTVEKTVAPAECS chain 2: MSWAPVLLMLFVYCTGCGPQPVLHQPPAMSSALGTTIRLTCTLRNDHDIGVYSVYWYQQRPGHPPRFLLRYFSQSDKSQGPQVPPRFSGSKDVARNRGYLSISVTHVFGSGTQLTVLSQPKQVQLVQ	0.191 nM	0.06 nM
HC 2/SLC 4 (antibody) chain 1: GQGTLVTVSSASQPVLHQPPAMSSALGTTIRLTCTLRNDHDIGVYSVYWYQQRPGHPPRFLLRYFSQSDKSQGPQVPPRFSGSKDVARNRGYLSISELQPEDEAMYYCAMGARSRCWPRGFQSKHNSVTHVFGSGTQLTVLSQPKATPSVTLFPPSSEELQANKATLVCLMNDFYPGILTVTWKADGTPITQGVEMTTPSKQSNNKYAASSYLSLTPEQWRSRRSYSCQVMHEGSTVEKTVAPAECS chain 2: MSWAPVLLMLFVYCTGCGPQPVLHQPPAMSSALGTTIRLTCTLRNDHDIGVYSVYWYQQRPGHPPRFLLRYFSQSDKSQGPQVPPRFSGSKDVARNRGYLSISVTHVFGSGTQLTVLSQPKQVQLVQ	0.175 nM	0.058 nM
HC 10/SLC 4 (antibody) chain 1: GQGTLVTVSSASTKGPSVFPQPVLHQPPAMSSALGTTIRLTCTLRNDHDIGVYSVYWYQQRPGHPPRFLLRYFSQSDKSQGPQVPPRFSGSKDVARNRGYLSISELQPEDEAMYYCAMGARSRCWPRGFQSKHNSVTHVFGSGTQLTVLSQPKATPSVTLFPPSSEELQANKATLVCLMNDFYPGILTVTWKADGTPITQGVEMTTPSKQSNNKYAASSYLSLTPEQWRSRRSYSCQVMHEGSTVEKTVAPAECS chain 2: MSWAPVLLMLFVYCTGCGPQPVLHQPPAMSSALGTTIRLTCTLRNDHDIGVYSVYWYQQRPGHPPRFLLRYFSQSDKSQGPQVPPRFSGSKDVARNRGYLSISVTHVFGSGTQLTVLSQPKQVQLVQ	0.153 nM	0.07 nM
HC 3/SLC 8 (antibody) chain 1: GQGTLVTVSSASTQPVLHQPPAMSSALGTTIRLTCTLRNDHDIGVYSVYWYQQRPGHPPRFLLRYFSQSDKSQGPQVPPRFSGSKDVARNRGYLSISELQPEDEAMYYCAMGARSRCWPRGFQSKHNSVTHVFGSGTQLTVLSQPKATPSVTLFPPSSEELQANKATLVCLMNDFYPGILTVTWKADGTPITQGVEMTTPSKQSNNKYAASSYLSLTPEQWRSRRSYSCQVMHEGSTVEKTVAPAECS chain 2: MSWAPVLLMLFVYCTGCGPQPVLHQPPAMSSALGTTIRLTCTLRNDHDIGVYSVYWYQQRPGHPPRFLLRYFSQSDKSQGPQVPPRFSGSKDVARNRGYLSISVTHVFGSGTQLTVLSQPKATPSQVQLVQ	0.157 nM	0.056 nM
HC 3/SLC 4 (antibody) chain 1: GQGTLVTVSSASTQPVLHQPPAMSSALGTTIRLTCTLRNDHDIGVYSVYWYQQRPGHPPRFLLRYFSQSDKSQGPQVPPRFSGSKDVARNRGYLSISELQPEDEAMYYCAMGARSRCWPRGFQSKHNSVTHVFGSGTQLTVLSQPKATPSVTLFPPSSEELQANKATLVCLMNDFYPGILTVTWKADGTPITQGVEMTTPSKQSNNKYAASSYLSLTPEQWRSRRSYSCQVMHEGSTVEKTVAPAECS chain 2: MSWAPVLLMLFVYCTGCGPQPVLHQPPAMSSALGTTIRLTCTLRNDHDIGVYSVYWYQQRPGHPPRFLLRYFSQSDKSQGPQVPPRFSGSKDVARNRGYLSISVTHVFGSGTQLTVLSQPKQVQLVQ	0.22 nM	0.067 nM
HC 3/SLC 5 (antibody) chain 1: GQGTLVTVSSASTQPVLHQPPAMSSALGTTIRLTCTLRNDHDIGVYSVYWYQQRPGHPPRFLLRYFSQSDKSQGPQVPPRFSGSKDVARNRGYLSISELQPEDEAMYYCAMGARSRCWPRGFQSKHNSVTHVFGSGTQLTVLSQPKATPSVTLFPPSSEELQANKATLVCLMNDFYPGILTVTWKADGTPITQGVEMTTPSKQSNNKYAASSYLSLTPEQWRSRRSYSCQVMHEGSTVEKTVAPAECS chain 2: MSWAPVLLMLFVYCTGCGPQPVLHQPPAMSSALGTTIRLTCTLRNDHDIGVYSVYWYQQRPGHPPRFLLRYFSQSDKSQGPQVPPRFSGSKDVARNRGYLSISVTHVFGSGTQLTVLSQPKAQVQLVQ	0.249 nM	0.054 nM
